Measured values: US20040234530A1 (WISCONSIN ALUMNI RESEARCH FOUNDATION, published 2004)

Biological target: T1, StcE′ E435D-His (as StcE′-His with glutamic to aspartic acid at residue 435; from pTB5, strain WAM2804) (E. coli O157:H7 EDL933 (plasmid pO157), UniProt O82882 36-898)
T1 sequence: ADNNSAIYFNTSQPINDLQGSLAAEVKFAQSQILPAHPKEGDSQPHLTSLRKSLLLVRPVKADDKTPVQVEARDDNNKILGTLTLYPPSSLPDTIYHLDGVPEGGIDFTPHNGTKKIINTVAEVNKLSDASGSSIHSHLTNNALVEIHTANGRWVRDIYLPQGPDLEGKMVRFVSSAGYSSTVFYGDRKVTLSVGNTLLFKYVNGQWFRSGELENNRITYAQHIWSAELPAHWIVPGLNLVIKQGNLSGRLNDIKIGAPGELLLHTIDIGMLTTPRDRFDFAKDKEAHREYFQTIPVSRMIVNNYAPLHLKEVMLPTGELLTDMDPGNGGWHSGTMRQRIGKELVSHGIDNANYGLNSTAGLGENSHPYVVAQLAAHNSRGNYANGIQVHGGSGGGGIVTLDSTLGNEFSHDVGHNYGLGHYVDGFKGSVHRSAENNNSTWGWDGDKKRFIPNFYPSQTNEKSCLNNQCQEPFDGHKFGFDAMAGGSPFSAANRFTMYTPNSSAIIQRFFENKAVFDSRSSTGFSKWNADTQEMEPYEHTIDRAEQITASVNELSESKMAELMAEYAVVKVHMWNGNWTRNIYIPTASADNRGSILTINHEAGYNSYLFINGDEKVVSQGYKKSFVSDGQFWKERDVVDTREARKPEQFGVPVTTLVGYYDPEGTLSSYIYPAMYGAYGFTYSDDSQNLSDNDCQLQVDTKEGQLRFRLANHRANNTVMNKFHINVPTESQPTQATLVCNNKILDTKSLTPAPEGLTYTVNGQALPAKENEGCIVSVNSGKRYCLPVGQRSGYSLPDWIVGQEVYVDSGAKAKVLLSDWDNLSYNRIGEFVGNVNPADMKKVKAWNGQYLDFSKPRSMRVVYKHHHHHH

B1: C1-esterase inhibitor (human plasma protease C1 inhibitor), purified or in human serum (other, UniProt P05155 23-500, looked up)
chain: NPNATSSSSQDPESLQDRGEGKVATTVISKMLFVEPILEVSSLPTTNSTTNSATKITANTTDEPTTQPTTEPTTQPTIQPTQPTTQLPTDSPTQPTTGSFCPGPVTLCSDLESHSTEAVLGDALVDFSLKLYHAFSAMKKVETNMAFSPFSIASLLTQVLLGAGENTKTNLESILSYPKDFTCVHQALKGFTTKGVTSVSQIFHSPDLAIRDTFVNASRTLYSSSPRVLSNNSDANLELINTWVAKNTNNKISRLLDSLPSDTRLVLLNAIYLSAKWKTTFDPKKTRMEPFHFKNSVIKVPMMNSKKYPVAHFIDQTLKAKVGQLQLSHNLSLVILVPQNLKHRLEDMEQALSPSVFKAIMEKLEMSKFQPTLLTLPRIKVTTSQDMLSIMEKLEFFDFSYDLNLCGLTEDPDLQVSAMQHQTVLELTETGVEAAAASAISVARTLLVFEVQQPFLFVLWDQQHKFPVFMGRVYDPRA
modifications: heavily glycosylated N-terminal domain
With B1 the “fold level of C1-INH on erythrocyte surfaces against that in the presence of StcE′-His” value was 22 fold.
